# Experimental data from US9993529B2, “Stable formulations of a hyaluronan-degrading enzyme” (Halozyme, Inc., priority 2011, dated 2018).
# Test: RP-HPLC insulin percent purity
# Assay type: physicochemical
# Procedure: Apparent solubility was measured as the percent insulin recovery as compared to the initial formulations/conditions.
# To determine the apparent solubility, the peak area of insulin/insulin analog main peak and desamido peak were integrated and combined together to calculate the percentage relative to the standards. […] The data were processed using Design-Expert® 7.0 (StatEase) and the “historical data” feature. Insulin percent purity was expressed as the percent of main insulin versus all insulin species.
substance,measurement,setting,value
"Regular Insulin: mature human insulin, SEQ ID NOS: 103 and 104",Percent of insulin main peak,"50 mM NaCl, pH 7.0, 0 months at 2-8° C.",97.64%
same,Percent of insulin main peak,"50 mM NaCl, pH 7.0, 0.25 months at 2-8° C.",97.59%
same,Percent of insulin main peak,"50 mM NaCl, pH 7.0, 0.5 months at 2-8° C.",97.50%
same,Percent of insulin main peak,"50 mM NaCl, pH 7.0, 1 month at 2-8° C.",97.44%
same,Percent of insulin main peak,"50 mM NaCl, pH 7.0, 3 months at 2-8° C.",97.24%
same,Percent of insulin main peak,"50 mM NaCl, pH 7.0, 5 months at 2-8° C.",97.73%
same,Percent of insulin main peak,"50 mM NaCl, pH 7.0, 9 months at 2-8° C.",97.20%
same,Percent of insulin main peak,"50 mM NaCl, pH 7.2, 0 months at 2-8° C.",97.64%
same,Percent of insulin main peak,"50 mM NaCl, pH 7.2, 0.25 months at 2-8° C.",97.59%
same,Percent of insulin main peak,"50 mM NaCl, pH 7.2, 0.5 months at 2-8° C.",97.56%
same,Percent of insulin main peak,"50 mM NaCl, pH 7.2, 1 month at 2-8° C.",97.46%
same,Percent of insulin main peak,"50 mM NaCl, pH 7.2, 3 months at 2-8° C.",97.47%
same,Percent of insulin main peak,"50 mM NaCl, pH 7.2, 5 months at 2-8° C.",97.75%
same,Percent of insulin main peak,"50 mM NaCl, pH 7.2, 9 months at 2-8° C.",97.27%
same,Percent of insulin main peak,"50 mM NaCl, pH 7.4, 0 months at 2-8° C.",97.58%
same,Percent of insulin main peak,"50 mM NaCl, pH 7.4, 0.25 months at 2-8° C.",97.54%
same,Percent of insulin main peak,"50 mM NaCl, pH 7.4, 0.5 months at 2-8° C.",97.48%
same,Percent of insulin main peak,"50 mM NaCl, pH 7.4, 1 month at 2-8° C.",97.47%
same,Percent of insulin main peak,"50 mM NaCl, pH 7.4, 3 months at 2-8° C.",97.45%
same,Percent of insulin main peak,"50 mM NaCl, pH 7.4, 5 months at 2-8° C.",97.74%
same,Percent of insulin main peak,"50 mM NaCl, pH 7.4, 9 months at 2-8° C.",97.27%
same,Percent of insulin main peak,"50 mM NaCl, pH 7.6, 0 months at 2-8° C.",97.65%
same,Percent of insulin main peak,"50 mM NaCl, pH 7.6, 0.25 months at 2-8° C.",97.58%
same,Percent of insulin main peak,"50 mM NaCl, pH 7.6, 0.5 months at 2-8° C.",97.33%
same,Percent of insulin main peak,"50 mM NaCl, pH 7.6, 1 month at 2-8° C.",97.44%
same,Percent of insulin main peak,"50 mM NaCl, pH 7.6, 3 months at 2-8° C.",97.35%
same,Percent of insulin main peak,"50 mM NaCl, pH 7.6, 5 months at 2-8° C.",97.66%
same,Percent of insulin main peak,"50 mM NaCl, pH 7.6, 9 months at 2-8° C.",97.34%
same,Percent of insulin main peak,"80 mM NaCl, pH 7.0, 0 months at 2-8° C.",97.65%
same,Percent of insulin main peak,"80 mM NaCl, pH 7.0, 0.25 months at 2-8° C.",97.50%
same,Percent of insulin main peak,"80 mM NaCl, pH 7.0, 0.5 months at 2-8° C.",97.30%
same,Percent of insulin main peak,"80 mM NaCl, pH 7.0, 1 month at 2-8° C.",97.20%
same,Percent of insulin main peak,"80 mM NaCl, pH 7.0, 5 months at 2-8° C.",97.81%
same,Percent of insulin main peak,"80 mM NaCl, pH 7.0, 9 months at 2-8° C.",96.18%
same,Percent of insulin main peak,"80 mM NaCl, pH 7.2, 0 months at 2-8° C.",97.57%
same,Percent of insulin main peak,"80 mM NaCl, pH 7.2, 0.25 months at 2-8° C.",97.59%
same,Percent of insulin main peak,"80 mM NaCl, pH 7.2, 0.5 months at 2-8° C.",97.30%
same,Percent of insulin main peak,"80 mM NaCl, pH 7.2, 1 month at 2-8° C.",97.45%
same,Percent of insulin main peak,"80 mM NaCl, pH 7.2, 3 months at 2-8° C.",97.34%
same,Percent of insulin main peak,"80 mM NaCl, pH 7.2, 5 months at 2-8° C.",97.64%
same,Percent of insulin main peak,"80 mM NaCl, pH 7.4, 0 months at 2-8° C.",97.56%
same,Percent of insulin main peak,"80 mM NaCl, pH 7.4, 0.25 months at 2-8° C.",97.61%
same,Percent of insulin main peak,"80 mM NaCl, pH 7.4, 0.5 months at 2-8° C.",97.51%
same,Percent of insulin main peak,"80 mM NaCl, pH 7.4, 1 month at 2-8° C.",97.43%
same,Percent of insulin main peak,"80 mM NaCl, pH 7.4, 3 months at 2-8° C.",97.43%
same,Percent of insulin main peak,"80 mM NaCl, pH 7.4, 5 months at 2-8° C.",97.75%
same,Percent of insulin main peak,"80 mM NaCl, pH 7.4, 9 months at 2-8° C.",97.29%
same,Percent of insulin main peak,"80 mM NaCl, pH 7.6, 0 months at 2-8° C.",97.63%
same,Percent of insulin main peak,"80 mM NaCl, pH 7.6, 0.25 months at 2-8° C.",97.62%
same,Percent of insulin main peak,"80 mM NaCl, pH 7.6, 0.5 months at 2-8° C.",97.52%
same,Percent of insulin main peak,"80 mM NaCl, pH 7.6, 1 month at 2-8° C.",97.37%
same,Percent of insulin main peak,"80 mM NaCl, pH 7.6, 3 months at 2-8° C.",97.64%
same,Percent of insulin main peak,"80 mM NaCl, pH 7.6, 5 months at 2-8° C.",97.67%
same,Percent of insulin main peak,"80 mM NaCl, pH 7.6, 9 months at 2-8° C.",97.31%
same,Percent of insulin main peak,"110 mM NaCl, pH 7.0, 0 months at 2-8° C.",97.64%
same,Percent of insulin main peak,"110 mM NaCl, pH 7.0, 0.25 months at 2-8° C.",97.31%
same,Percent of insulin main peak,"110 mM NaCl, pH 7.0, 0.5 months at 2-8° C.",97.57%
same,Percent of insulin main peak,"110 mM NaCl, pH 7.0, 1 month at 2-8° C.",96.64%
same,Percent of insulin main peak,"110 mM NaCl, pH 7.0, 3 months at 2-8° C.",96.10%
same,Percent of insulin main peak,"110 mM NaCl, pH 7.0, 5 months at 2-8° C.",97.79%
same,Percent of insulin main peak,"110 mM NaCl, pH 7.2, 0 months at 2-8° C.",97.62%
same,Percent of insulin main peak,"110 mM NaCl, pH 7.2, 0.25 months at 2-8° C.",97.46%
same,Percent of insulin main peak,"110 mM NaCl, pH 7.2, 0.5 months at 2-8° C.",97.35%
same,Percent of insulin main peak,"110 mM NaCl, pH 7.2, 3 months at 2-8° C.",97.49%
same,Percent of insulin main peak,"110 mM NaCl, pH 7.2, 5 months at 2-8° C.",97.61%
same,Percent of insulin main peak,"110 mM NaCl, pH 7.2, 9 months at 2-8° C.",95.91%
same,Percent of insulin main peak,"110 mM NaCl, pH 7.4, 0 months at 2-8° C.",97.65%
same,Percent of insulin main peak,"110 mM NaCl, pH 7.4, 0.25 months at 2-8° C.",97.58%
same,Percent of insulin main peak,"110 mM NaCl, pH 7.4, 0.5 months at 2-8° C.",97.39%
same,Percent of insulin main peak,"110 mM NaCl, pH 7.4, 1 month at 2-8° C.",97.36%
same,Percent of insulin main peak,"110 mM NaCl, pH 7.4, 3 months at 2-8° C.",97.36%
same,Percent of insulin main peak,"110 mM NaCl, pH 7.4, 5 months at 2-8° C.",97.79%
same,Percent of insulin main peak,"110 mM NaCl, pH 7.4, 9 months at 2-8° C.",96.91%
same,Percent of insulin main peak,"110 mM NaCl, pH 7.6, 0 months at 2-8° C.",97.58%
same,Percent of insulin main peak,"110 mM NaCl, pH 7.6, 0.25 months at 2-8° C.",97.57%
same,Percent of insulin main peak,"110 mM NaCl, pH 7.6, 0.5 months at 2-8° C.",97.60%
same,Percent of insulin main peak,"110 mM NaCl, pH 7.6, 1 month at 2-8° C.",97.52%
same,Percent of insulin main peak,"110 mM NaCl, pH 7.6, 3 months at 2-8° C.",97.42%
same,Percent of insulin main peak,"110 mM NaCl, pH 7.6, 5 months at 2-8° C.",97.61%
same,Percent of insulin main peak,"110 mM NaCl, pH 7.6, 9 months at 2-8° C.",97.31%
same,Percent of insulin main peak,"140 mM NaCl, pH 7.0, 0 months at 2-8° C.",97.65%
same,Percent of insulin main peak,"140 mM NaCl, pH 7.0, 0.25 months at 2-8° C.",97.15%
same,Percent of insulin main peak,"140 mM NaCl, pH 7.0, 1 month at 2-8° C.",96.39%
same,Percent of insulin main peak,"140 mM NaCl, pH 7.0, 3 months at 2-8° C.",96.16%
same,Percent of insulin main peak,"140 mM NaCl, pH 7.0, 9 months at 2-8° C.",95.17%
same,Percent of insulin main peak,"140 mM NaCl, pH 7.2, 0 months at 2-8° C.",97.56%
same,Percent of insulin main peak,"140 mM NaCl, pH 7.2, 0.25 months at 2-8° C.",97.37%
same,Percent of insulin main peak,"140 mM NaCl, pH 7.2, 1 month at 2-8° C.",96.62%
same,Percent of insulin main peak,"140 mM NaCl, pH 7.2, 3 months at 2-8° C.",96.60%
same,Percent of insulin main peak,"140 mM NaCl, pH 7.2, 9 months at 2-8° C.",95.49%
same,Percent of insulin main peak,"140 mM NaCl, pH 7.4, 0 months at 2-8° C.",97.64%
same,Percent of insulin main peak,"140 mM NaCl, pH 7.4, 0.25 months at 2-8° C.",97.57%
same,Percent of insulin main peak,"140 mM NaCl, pH 7.4, 0.5 months at 2-8° C.",97.33%
same,Percent of insulin main peak,"140 mM NaCl, pH 7.4, 1 month at 2-8° C.",97.23%
same,Percent of insulin main peak,"140 mM NaCl, pH 7.4, 3 months at 2-8° C.",97.38%
same,Percent of insulin main peak,"140 mM NaCl, pH 7.4, 5 months at 2-8° C.",97.73%
same,Percent of insulin main peak,"140 mM NaCl, pH 7.4, 9 months at 2-8° C.",96.10%
same,Percent of insulin main peak,"140 mM NaCl, pH 7.6, 0 months at 2-8° C.",97.64%
same,Percent of insulin main peak,"140 mM NaCl, pH 7.6, 0.25 months at 2-8° C.",97.61%
same,Percent of insulin main peak,"140 mM NaCl, pH 7.6, 0.5 months at 2-8° C.",97.41%
same,Percent of insulin main peak,"140 mM NaCl, pH 7.6, 1 month at 2-8° C.",97.51%
same,Percent of insulin main peak,"140 mM NaCl, pH 7.6, 3 months at 2-8° C.",97.35%
same,Percent of insulin main peak,"140 mM NaCl, pH 7.6, 5 months at 2-8° C.",97.56%
same,Percent of insulin main peak,"140 mM NaCl, pH 7.6, 9 months at 2-8° C.",97.07%
same,insulin main peak percentage,"regular insulin/rHuPH20, long term storage at 2-8° C.",about 97%
